US20220162322A1

Molecular target: BDCA-2 (CLEC4C, CD303) on human plasmacytoid dendritic cells (purified pDC or pDC within PBMC) (human) (UniProt Q8WTT0)
Assay: cell-based or functional assay

Chain of BDCA-2 (CLEC4C, CD303) on human plasmacytoid dendritic cells (purified pDC or pDC within PBMC) (human) (Q8WTT0 whole entry): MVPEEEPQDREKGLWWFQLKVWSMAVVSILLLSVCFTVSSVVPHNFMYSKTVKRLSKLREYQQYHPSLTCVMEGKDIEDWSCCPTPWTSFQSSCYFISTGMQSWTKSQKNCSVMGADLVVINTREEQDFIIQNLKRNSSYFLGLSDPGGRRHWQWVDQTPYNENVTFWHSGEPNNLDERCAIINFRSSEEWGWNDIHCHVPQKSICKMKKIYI

IC50, nM; inhibition of IFNα from ODN stimulated healthy donor PBMC: 0.85 nM
IC50, ng/ml; inhibition of IFNα from ODN stimulated healthy donor PBMC: 128 ng/mL
IC90, nM; inhibition of IFNα from ODN stimulated healthy donor PBMC: 7.68 nM
IC90, ng/ml; inhibition of IFNα from ODN stimulated healthy donor PBMC: 1150 ng/mL
B1: anti-BDCA-2 mAb BIIB059 (from patent WO2014093396) (antibody, INN chains, looked up, V domains shown)
VH: DVQLVESGGGLVKPGGSLRLSCAASGFTFSTYTMSWVRQAPGKGLEWVATISPGDSFGYYYPDSVQGRFTISRDNAKNSLYLQMNSLRAEDTAVYYCTRDIYYNYGAWFAYWGQGTLVTVSS
VL: DIQLTQSPSSLSASVGDRVTITCKASQSVDYDGDSYMNWYQQKPGKAPKLLIYAASTLESGVPSRFSGSGSGTDFTLTISSLQPEDFATYYCQQANEDPRTFGQGTKVEIK
